“Also recorded” adds a separate entry of the source.
Tests used:
human AT2 cell organoid [1] = experiment: Human AT2 cell organoid growth, CellTiter Glo assay; assay type: cell-based
Protocol: For ex vivo studies, 3D organoid cultures (see, e.g., Zacharias, W. et al. (2018) Nature 555:251-257 and Barkauskas et al. (2017) Development 144:986-997) were constructed by combining primary human lung fibroblasts from healthy, pulmonary fibrosis, or COPD patients with alveolar epithelial cells (AT2 and AEP cells) from patients. Organoids were cultured in SAGM medium with growth factor free Matrigel. The Wnt antagonist and agonist were added in a sequential or concurrent manner to determine the effect on the fibroblast/myofibroblast proliferation, matrix production, alveolar epithelial cell proliferation and AT1/AT2 cell fate trans-differentiation. Alveolar organoids can also be cultured directly from human distal lung cells including purified AT2 cells (Kobayashi et al., (2020) supra).
(§1) In all of the AT2 cell organoid experiments, the Wnt signaling inhibitor, C59, was used to prevent endogenous secretion of Wnt ligands. […] AT2 cell organoid growth was assessed with the CellTiter Glo assay.

human AT2 cell organoid [2] = experiment: Human AT2 organoid size (diameter, microscopy); assay type: cell-based; conditions: in the absence of RSPO
[3] = system: mouse AT2 organoid cultures; experiment: Mouse AT2 cell organoid expansion, CellTiter-Glo assay; assay type: cell-based; conditions: SWAP in combination with RSPO2; C59 present; FIG. 9
Protocol: as §1

[4] = system: acute bleomycin mouse model; experiment: Bleomycin-induced acute lung injury (fibrosis) mouse model; assay type: in vivo; conditions: agent alone
Excerpt: The acute lung injury (single bleomycin treatment; FIG. 1) and chronic intermittent/low dose bleomycin mouse models (FIG. 2) were used to determine the therapeutic effects of Wnt antagonist and agonist (administered concurrently or sequentially or individually) in combination with or without anti-fibrotic drugs (e.g., pirfenidone and nintedanib) to assess effects on anti-fibrotic and improved respiratory functions (see, e.g., Degryse, A. et al. (2010) Am J Physiol Lung Cell Mol Physiol. 299:442-52). Improvement of fibrosis was observed upon treatment with a WNT agonist, SWAP5 (see, e.g., FIG. 7, FIG. 10). Specifically, bleomycin was administered intratracheally to the mice at day 0, and animals were treated twice weekly with an agonist approach—combination of SWAP5 (FZD1,2,5,7,8 multi-FZD-specific SWAP) and RSPO2 (combo)—for two weeks starting at day 7 until termination at day 21. […] Improvement of fibrosis was also observed upon treatment with a Wnt agonist or the Wnt signaling enhancer RSPO2 alone (FIG. 10).

B1: SWAP3: FZD5,8-specific Wnt agonist (FZD5,8 and LRP6); heavy/light chains SEQ ID NO: 7 and 8 (antibody)
heavy: EVQLVESGGGLVQPGGSLRLSCAASGFTFTSYYISWVRQAPGKGLEWVAEISPYSGSTYYADSVKGRFTISADTSKNTAYLQMNSLRAEDTAVYYCALRARPPIRLHPRGSVMDYWGQGTLVTVSSGGGGSGGGGSGGGGSEVQLVESGGGLVQPGGSLRLSCAASGFNISYSYIHWVRQAPGKGLEWVASIYSSSGSTSYADSVKGRFTISADTSKNTAYLQMNSLRAEDTAVYYCARGAIDYWGQGTLVTVSSASTKGPSVFPLAPSSKSTSGGTAALGCLVKDYFPEPVTVSWNSGALTSGVHTFPAVLQSSGLYSLSSVVTVPSSSLGTQTYICNVNHKPSNTKVDKKVEPKSCDKTHTCPPCPAPEAAGGPSVFLFPPKPKDTLMISRTPEVTCVVVDVSHEDPEVKFNWYVDGVEVHNAKTKPREEQYNSTYRVVSVLTVLHQDWLNGKEYKCKVSNKALGAPIEKTISKAKGQPREPQVYTLPPSREEMTKNQVSLTCLVKGFYPSDIAVEWESNGQPENNYKTTPPVLDSDGSFFLYSKLTVDKSRWQQGNVFSCSVMHEALHNHYTQKSLSLSPGK
light: DIQMTQSPSSLSASVGDRVTITCRASQDVSTAVAWYQQKPGKAPKLLIYSASFLYSGVPSRFSGSGSGTDFTLTISSLQPEDFATYYCQQSYTTPPTFGQGTKVEIKGGGGSGGGGSGGGGSDIQMTQSPSSLSASVGDRVTITCRASQSVSSAVAWYQQKPGKAPKLLIYSASSLYSGVPSRFSGSRSGTDFTLTISSLQPEDFATYYCQQWYSSGHVLITFGQGTKVEIKRTVAAPSVFIFPPSDEQLKSGTASVVCLLNNFYPREAKVQWKVDNALQSGNSQESVTEQDSKDSTYSLSSTLTLSKADYEKHKVYACEVTHQGLSSPVTKSFNRGEC
Human AT2 cell organoid [1]; 10 nM concentration, in the absence of RSPO, FIG. 8
  effectiveness on human AT2 organoid expansion versus Chir99021: more effective than the small molecule Wnt pathway activator, Chir99021
Human AT2 cell organoid [1]; SWAP alone, in the absence of RSPO, C59 present, FIG. 8
  human AT2 organoid culture outgrowth/viability (CellTiter Glo): induced human AT2 organoid culture outgrowth/viability as assessed by the CellTiter Glo assay in a concentration-dependent manner; also recorded: induce human AT2 cell organoid expansion alone (in the absence of RSPO) in a dose-dependent manner
Human AT2 cell organoid [1]; summary of organoid results
  self-renewal and expansion of human AT2 cells: promotes the self-renewal and expansion of human AT2 cells
Human AT2 cell organoid [2]; C59 present, FIG. 6
  human AT2 cell organoid growth as organoid size (diameter): expand AT2 organoids
Human AT2 cell organoid [2]; FIG. 8
  numbers of organoids and organoid size by microscopy: increased numbers of organoids and organoid size
[3]
  expansion of mouse AT2 organoid cultures (CellTiter-Glo): led to the expansion of mouse AT2 organoid cultures
[4]; dosed four times between week 1 and week 3, vs anti-GFP, FIGS. 10-11
  percentage of lung area affected by fibrosis: reduced the fibrosis score, the percentage of lung affected, immune cell infiltration, and cytokine levels in the acute bleomycin mouse model in a dose-dependent manner; also recorded: reduce the area of the lung that is fibrotic
[4]; dosed four times between week 1 and week 3, vs anti-GFP, FIGS. 10-12
  fibrosis score (Modified Ashcroft): reduced the fibrosis score, the percentage of lung affected, immune cell infiltration, and cytokine levels in the acute bleomycin mouse model in a dose-dependent manner; also recorded: lower the severity of fibrosis
[4]; FIG. 11D
  percent of ACTA2 in the lung: reduction of fibrosis
[4]; FIG. 11E
  immune cell infiltration / inflammation (H&E based pathology scores): reduced the fibrosis score, the percentage of lung affected, immune cell infiltration, and cytokine levels in the acute bleomycin mouse model in a dose-dependent manner; also recorded: reduction in inflammation
[4]; FIG. 11F
  IL6 in lung tissue (Meso Scale Discovery): reduction in cytokines
[4]; FIG. 11G
  IL1B in lung tissue (Meso Scale Discovery): reduction in cytokines
[4]; FIG. 11H
  GRO/CXCL1 in lung tissue (Meso Scale Discovery): reduction in cytokines
[4]; lung tissue, FIG. 11
  cytokine levels: reduced the fibrosis score, the percentage of lung affected, immune cell infiltration, and cytokine levels in the acute bleomycin mouse model in a dose-dependent manner

Reference: US20240391991A1, “MODULATION OF WNT SIGNALLING IN PULMONARY DISORDERS” (Surrozen Operating, Inc., priority 2021, published 2024)
